Assay [1] concerns the target T1, human RAGE-strep tag fusion protein (human, UniProt Q15109 23-344).
T1 construct: monomeric soluble human RAGE; also called hRAGE-SA; soluble human streptavidin-tagged RAGE
The assay can be described thus: BIACORE capture assay: hRAGE-SA over antibody captured on anti-human Fc; steady state affinity; FC2. As for the experimental part:
(§1) The assays were performed by coating anti-human Fc antibodies onto a CM5 BIA chip with 5000 RU (pH 5.0, 7 min.) in flow cells 1-4. Each antibody was captured by flowing at 2.0 μg/ml over the anti-Fc antibodies in flow cells 2-4 (flow cell 1 was used as a reference).

Assay [2] deals with T2, murine RAGE-strep tag fusion protein (murine, UniProt Q62151 23-343).
T2 construct: also called mRAGE-strep; mRAGE-SA
T2 chain: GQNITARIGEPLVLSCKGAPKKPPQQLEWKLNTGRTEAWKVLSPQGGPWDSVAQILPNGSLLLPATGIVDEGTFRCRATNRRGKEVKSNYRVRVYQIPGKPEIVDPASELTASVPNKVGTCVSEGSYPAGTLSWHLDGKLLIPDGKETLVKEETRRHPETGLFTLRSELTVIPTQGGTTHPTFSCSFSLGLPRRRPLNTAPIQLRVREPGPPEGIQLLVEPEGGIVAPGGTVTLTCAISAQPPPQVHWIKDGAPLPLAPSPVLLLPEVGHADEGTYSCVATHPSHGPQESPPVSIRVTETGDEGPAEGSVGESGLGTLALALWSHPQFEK
The assay can be described thus: BIACORE capture assay: mRAGE-SA (SA-Mu RAGE) over antibody captured on anti-human Fc; 1:1 Langmuir global fit; FC3. As for the experimental part:
as §1

T1 sequence (Q15109 other isoform, or with tags, fused parts or gaps): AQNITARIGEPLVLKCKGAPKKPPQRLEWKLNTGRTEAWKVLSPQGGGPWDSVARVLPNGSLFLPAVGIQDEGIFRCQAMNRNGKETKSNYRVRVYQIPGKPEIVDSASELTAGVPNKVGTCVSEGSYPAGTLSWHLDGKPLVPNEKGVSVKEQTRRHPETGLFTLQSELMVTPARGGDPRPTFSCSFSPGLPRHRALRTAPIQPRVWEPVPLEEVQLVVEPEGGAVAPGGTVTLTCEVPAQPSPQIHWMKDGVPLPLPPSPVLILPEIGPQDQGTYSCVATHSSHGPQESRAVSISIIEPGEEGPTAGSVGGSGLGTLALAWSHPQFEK

B1: chimeric XT-M4 (antibody, V domains shown)
VH: EVQLVESGGGLVQPGRSLKLSCVVSGFTFNNYWMTWIRQTPGKGLEWVASINNSGDNTYYPDSVKDRFTISRDNAKSTLYLQMNSLRSEDTATYYCTRGGDITTGFDYWGQGVMVTVSS
VL: DIQMTQSPSSMSVSLGDTITITCRASQDVGIYVNWFQQKPGKSPRRMIYRATNLADGVPSRFSGSRSGSIYSLTISSLESEDVADYHCLEFDEHPLTFGSGTKVEIK
modifications: N-linked oligosaccharide at Asn52 (CDR2) on part of the heavy chains
notes: rat XT-M4 variable regions fused to human kappa light chain and human IgG1 heavy chain constant regions; L234A and G237A in the human IgG1 Fc region; also called chimeric antibody XT-M4; XT-M4-A-1
Consider B1, for which the Kd in assay [1] stood at 11 nM. In assay [2], this molecule returned an equilibrium dissociation constant (Kd) of 1.9 nM, a koff of 0.0041 s⁻¹ and an on-rate (kon) of 2.1e+06 M⁻¹ s⁻¹.

Values taken from patent US20070253950A1 (Pfizer, published 2007).
